Consider three molecules from patent publication US20150086555A1.

Like-named read-outs stand apart in the source and are kept apart here.

What all share (details): remark: other sources report otherwise
In experiment [1] the target is T1, recombinant soluble homotrimeric HA of A/Vietnam/1203/04 (H5N1) (Influenza A virus A/VietNam/1203/2004(H5N1)). In words: HA microarray, control antibody.
In experiment [2] the target is T2, recombinant soluble homotrimeric HA of A/chicken/Vietnam/NCVD-016/08 (H5N1) (Influenza A virus A/chicken/Vietnam/NCVD-016/2008(H5N1)). In words: HA microarray, control antibody.
The target in experiment [3] is T3, recombinant soluble homotrimeric HA of A/Japan/305/57 (H2N2) (Influenza A virus A/Japan/305/1957(H2N2)). In words: trimeric HA microarray, transfection supernatant set 1.
The target in experiment [4] is T4, recombinant soluble homotrimeric HA of A/Netherlands/219/03 (H7N7) (Influenza A virus A/Netherlands/219/03(H7N7)). The experiment is described as above.
For experiment [5], the target named is T5, recombinant soluble homotrimeric HA of A/California/4/09 (H1N1) (Influenza A virus A/California/04/2009(H1N1)). Described as above.
Experiment [6] addresses T1, recombinant soluble homotrimeric HA of …. The experiment is described as above.
Experiment [7] addresses T6, recombinant soluble homotrimeric HA of A/Solomon Islands/3/06 (H1N1) (Influenza A virus A/Solomon Islands/3/2006(H1N1)). The experiment is described as above.
The target of experiment [8] is T7, recombinant soluble homotrimeric HA of A/Indonesia/5/05 (H5N1) (Influenza A virus A/Indonesia/5/2005(H5N1)). Described as above.
Experiment [9] addresses T8, recombinant soluble homotrimeric HA of A/Egypt/3300-NAMRU3/08 (H5N1) (Influenza A virus A/Egypt/3300-NAMRU3/2008(H5N1)). Described as above.
For experiment [10], the target named is T2, recombinant soluble homotrimeric HA of …. The experiment is described as above.
The target in experiment [11] is T9, recombinant soluble homotrimeric HA of A/Anhui/1/05 (H5N1) (Influenza A virus A/Anhui/1/2005(H5N1)). Described as above.
Experiment [12] deals with T10, recombinant soluble homotrimeric HA of A/South Carolina/1/18 (H1N1) (Influenza A virus A/South Carolina/1/18 (H1N1)). Described as above.
Experiment [13] deals with recombinant soluble homotrimeric HA of A/Hong Kong/2108/03 (H9N2) (Influenza A virus A/HK/2108/2003(H9N2)). In words: trimeric HA microarray, transfection supernatant set 3.
Experiment [14] deals with recombinant soluble homotrimeric HA of A/Hong Kong/156/97 (H5N1) (Influenza A virus A/Hong Kong/156/97 (H5N1)).
For experiment [15], the target named is T3, recombinant soluble homotrimeric HA of ….
Experiment [16] addresses recombinant soluble homotrimeric HA of A/Hong Kong/1073/99 (H9N2) (Influenza A virus A/Hong Kong/1073/99 (H9N2)).
Experiment [17] has as its target T4, recombinant soluble homotrimeric HA of ….
For experiment [18], the target named is recombinant soluble homotrimeric HA of A/northern shoveler/California/HKWF115/07 (H6) (Influenza A virus A/northern shoveler/California/HKWF115/2007(H6N1)).
Experiment [19] deals with recombinant soluble homotrimeric HA of A/duck/Yangzhou/02/05 (H8N4) (Influenza A virus A/duck/Yangzhou/02/2005(H8N4)).
For experiment [20], the target named is T5, recombinant soluble homotrimeric HA of ….
Experiment [21] has as its target T1, recombinant soluble homotrimeric HA of ….
Experiment [22] concerns the target T6, recombinant soluble homotrimeric HA of ….
In experiment [23] the target is T7, recombinant soluble homotrimeric HA of ….
Experiment [24] has as its target recombinant soluble homotrimeric HA of A/Wisconsin/67/05 (H3N2) (Influenza A virus A/Wisconsin/67/2005(H3N2)).
Experiment [25] concerns the target T8, recombinant soluble homotrimeric HA of ….
In experiment [26] the target is T2, recombinant soluble homotrimeric HA of ….
The target of experiment [27] is recombinant soluble homotrimeric HA of A/swine/Ontario/01911-2/99 (H4N6) (Influenza A virus A/Swine/Ontario/01911-2/99 (H4N6)).
In experiment [28] the target is T9, recombinant soluble homotrimeric HA of ….
Experiment [29] concerns the target T10, recombinant soluble homotrimeric HA of ….

B1: TCN-504 (3251_K17) (antibody, V domains shown)
VH: QVQLQESGPGLVKPSETLSLTCAVSGVSISNIDFYWGWIRQPPGKGLEWIGNIYYTGITFYNPSLSSRVAISIDTSKNQFSLTLTSVTAADTAMYYCARHYGDSEAINDAFDIWGQGTMLTVSS
VL: EIVMTQSPATLSVSPGERATLSCRASQSVGNSLAWYQQRPGQAPRLLIYGASTRATGIPPRFSGSGSGTEFTLTISSLQTEDFAVYYCQQYINWRPLSFGGGTKVEIK
Take B1: the Trimeric HA Binding: RLU in experiment [1] came to 196 RLU; in [2], 38500 RLU; in experiment [3], 15100 RLU; in experiment [4] it was 23800 RLU; in experiment [5], 18300 RLU; in experiment [6], 1300 RLU. For the same molecule, the Trimeric HA Binding: RLU was 29800 RLU in [7]; 16600 RLU in experiment [8]; 16100 RLU in experiment [9]; 27800 RLU in experiment [10]; 29000 RLU in experiment [11]; 21500 RLU in [12].

B2: TCN-523 (5248_A17) (antibody, V domains shown)
VH: QVQLVQSGAEVKKPGSSVKVSCKASGGSFSNYAFSWVRQAPGQGLEWMGGTIPLLGTTNYAQKFQGRVTISADQFTSTAYMELGSLRSEDTAVYYCTRRKMTTAFDSWGQGTLVTVSS
VL: QPVLTQPPSASASLGASVTLTCTLSSAYSNYKVDWYQQRPGKGPRFVMRVGTGGIVGSKGDGIPDRFSVLGSGLNRYLTIKNIQEEDESDYHCGADHGSGSNFVSPYVFGGGTKLTVL
As to B2, the Trimeric HA Binding: RLU came out at 51 RLU in [13]; 191 RLU in experiment [3]; 28 RLU in experiment [4]; 17700 RLU in experiment [5]; 80 RLU in experiment [6]; 6780 RLU in experiment [7]. Besides, the Trimeric HA Binding: RLU in experiment [8] is 18500 RLU; in experiment [9] it was 25500 RLU; in experiment [10], 10800 RLU; in experiment [11] it was 60 RLU; in experiment [12], 26400 RLU.

B3: TCN-563 (5237_B21) (antibody, V domains shown)
VH: QVQLAQSGAEVKRPGSSVKVSCTASGGIFRKNAISWVRQAPGQGLEWMGGIIAVFNTANYAQKFQGRVKITADESGNTAYMELSSLRSDDTAVYYCASHPKYFYGSGSYPDFWGQGTLVTVSS
VL: QSALTQPRSVSGSPGQSVTISCTGSSSDVGASNSVSWYQQHPGKAPKLVIYDVTERPSGVPHRFSGSKSGNTASLTVSGLQPEDEADYFCCAYGGKYLVVFGGGTKVTVL
For the molecule B3, the Trimeric HA Binding: RLU in experiment [14] came to 17700 RLU; in experiment [15], 12400 RLU; in experiment [16], 4600 RLU; in [17], 1690 RLU; in experiment [18] it was 21400 RLU; in [19] it was 327 RLU. In addition, the Trimeric HA Binding: RLU came out at 25900 RLU in experiment [20]; 27700 RLU in experiment [21]; 21000 RLU in experiment [22]; 23200 RLU in experiment [23]; 314 RLU in [24]; 21600 RLU in experiment [25]. For the same molecule, the Trimeric HA Binding: RLU in experiment [26] was 8580 RLU; in experiment [27], 376 RLU; in [28] it was 7520 RLU; in [29] it was 16300 RLU.
